Here are results for one substance from paper PMC4134230.

The subject of series [1] is Tau (hTau42, longest isoform, unphosphorylated) (Homo sapiens). Description: SPR (kinetic). The conditions noted are these: average of six determinations, 18-22 C; Kd given as 0.04 uM; immobilized on polylysine-heparin-polylysine gold surface; 10 mM Hepes, 0.1 M NaCl, pH 7; SPR at 13-33 C, DNA immobilized on polylysine-heparin-polylysine gold surface.
Series [2] has the same test system. Description: SPR (equilibrium saturation). The settings on record: immobilized on polylysine-heparin-polylysine gold surface; 10 mM Hepes, 0.1 M NaCl, pH 7; SPR at 13-33 C, DNA immobilized on polylysine-heparin-polylysine gold surface.

Consider “calf thymus DNA (activated type XV, Sigma)”, for which the Ka in series [1] was 2.4 10^7 M^-1; in series [2] it was 2.3 10^7 M^-1.
